Results on 34 sequences are retold here after the supplement of paper PMC7877785.

The series can be described thus: self-splicing fitness, log relative to wild type (ln ratio); higher = more splicing; Tetrahymena group I intron in knt gene, E. coli kanamycin selection, DiMSum; sequences stand for … in CUCUCU…GGAGGGAAAAGUUAUCAGGCAUGCACCUGGUAGCUAGUCUUUAAACCAAUAGAUUGCAUCGGUUUAAAAGGCAAGACCGUCAAAUUGCGGGAAAGGGGUCAACAGCCGUUCAGUACCAAGUCUCAGGGGAAACUUUGAGAUGGCCUUGCAAAGGGUAUGGUAAUAAGCUGACGGACAUGGUCCUAACCACGCAGCCAAGUCCUAAGUCAACAGAUCUUCUGUUGAUAUGGAUGCAGUUCACAGACUAAAUGUCGGUCGGGGAAGAUGUAUUCUUCUCAUAAGAUAUAGUCGGACCUCUCCUUAAUGGGAGCUAGCGGAUGAAGUGAUGCAACACUGGAGCCGCUGGGAACUAAUUUGUAUGCGAAAGUAUAUUGAUUAGUUUUGGAGUACUCGUGGUCG
The method in brief: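 Fitness was computed with DiMSum as the error-weighted combination of replicate fold changes, kanamycin versus none, each normalised to wild type. The library randomised all eight intron nucleotides of the P1ex region, with the intron placed in the knt kanamycin-resistance gene on pET-22b(+) in E. coli BL21(DE3). Six replicate transformations were grown overnight at 37°C or 30°C on LB agar with or without 25 μg/mL kanamycin, plus 100 μg/mL carbenicillin, 50 μM IPTG and 0.2% rhamnose. Pooled colonies were amplicon-sequenced on an Illumina HiSeq 2500.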

± gives the uncertainty stated by the source.

Turning to CUCUAGCAAUAUUACGGCGG, the “self-splicing fitness (ln)” value (30 °C) was -3.5 ± 0.15 and the “self-splicing fitness (ln)” value (37 °C) is -3.12 ± 0.23.
Turning to UACAAGCAAUAUUACGAUGA, the “self-splicing fitness (ln)” value was -0.422 ± 0.072 (30 °C) and -0.314 ± 0.085 (37 °C).
The corresponding values for CCUAAGCAAUAUUACGUGCG are -2.59 ± 0.13 and -1.03 ± 0.12.
The corresponding values for GCUUAGCAAUAUUACGGUAC are -1.91 ± 0.14 and -0.938 ± 0.19.
The corresponding values for AACGAGCAAUAUUACGCGUU are -4.34 ± 0.2 and -2.42 ± 0.14.
On to UACGAGCAAUAUUACGUCGC, for which the “self-splicing fitness (ln)” value was -3.3 ± 0.47 (30 °C) and -2.49 ± 0.42 (37 °C).
Regarding CGCGAGCAAUAUUACGUCGG, the “self-splicing fitness (ln)” value is -1.99 ± 0.086 (30 °C) and -1.16 ± 0.093 (37 °C).
With AAUCAGCAAUAUUACGCCUA, the “self-splicing fitness (ln)” value is -0.0982 ± 0.08 (30 °C) and 0.103 ± 0.09 (37 °C).
In the case of UACUAGCAAUAUUACGCUAU, the “self-splicing fitness (ln)” value (30 °C) was -2.8 ± 0.21 and the “self-splicing fitness (ln)” value (37 °C) was -1.32 ± 0.16.
As to GAUUAGCAAUAUUACGUCAC, the “self-splicing fitness (ln)” value was -2.91 ± 0.28 (30 °C) and -2.2 ± 0.37 (37 °C).
Consider CUUAAGCAAUAUUACGUUAU, for which the “self-splicing fitness (ln)” value by setting is: (30 °C) -3.09 ± 0.14; (37 °C) -2.51 ± 0.2.
With UUGAAGCAAUAUUACGUUGU, the “self-splicing fitness (ln)” value by setting is: (30 °C) -2.87 ± 0.11; (37 °C) -2.24 ± 0.16.
Regarding AGCGAGCAAUAUUACGUAUC, the “self-splicing fitness (ln)” value (37 °C) was -3.38 ± 0.39.
Same read-out and setting: then UGGGAGCAAUAUUACGUACU, with -2.02 ± 0.33.
Turning to GCUAAGCAAUAUUACGCUUA, the “self-splicing fitness (ln)” value is -1.74 ± 0.26 (30 °C) and -3.17 ± 0.43 (37 °C).
In the case of UGCCAGCAAUAUUACGAUCG, the “self-splicing fitness (ln)” value is -0.0468 ± 0.067 (30 °C) and 0.0388 ± 0.079 (37 °C).
For GUGAAGCAAUAUUACGGCUC, the “self-splicing fitness (ln)” value by setting is: (30 °C) -0.996 ± 0.091; (37 °C) -0.646 ± 0.099.
The corresponding values for CCUGAGCAAUAUUACGCCGC are -2.83 ± 0.5 and 0.153 ± 0.33.
For CACCAGCAAUAUUACGCCAA, the “self-splicing fitness (ln)” value runs as follows: (30 °C) -2.95 ± 0.28; (37 °C) -3.23 ± 0.3.
The corresponding values for AGAGAGCAAUAUUACGGUCA are -2.48 ± 0.49 and -1.97 ± 0.24.
Regarding GAUAAGCAAUAUUACGGAAA, the “self-splicing fitness (ln)” value is -2.35 ± 0.41 (30 °C) and -1.67 ± 0.29 (37 °C).
For ACCGAGCAAUAUUACGUAGC, the “self-splicing fitness (ln)” value is -3.46 ± 0.16 (30 °C) and -1.61 ± 0.15 (37 °C).
The corresponding values for GCGUAGCAAUAUUACGUCUA are -1.06 ± 0.22 and -0.924 ± 0.15.
With UCCUAGCAAUAUUACGUUCU, the “self-splicing fitness (ln)” value was -3.14 ± 0.14 (30 °C) and -2.51 ± 0.13 (37 °C).
For ACUCAGCAAUAUUACGUGAU, the “self-splicing fitness (ln)” value is, setting by setting: (30 °C) -1 ± 0.064; (37 °C) -0.627 ± 0.078.
In the case of CGUUAGCAAUAUUACGUAAC, the “self-splicing fitness (ln)” value (37 °C) was -2.3 ± 0.46.
As for AUGAAGCAAUAUUACGUCCA, the “self-splicing fitness (ln)” value reads like this: (30 °C) -0.138 ± 0.075; (37 °C) 0.611 ± 0.11.
The corresponding values for CUCAAGCAAUAUUACGGAGC are -3.11 ± 0.11 and -2.54 ± 0.14.
As to ACAAAGCAAUAUUACGCCCG, the “self-splicing fitness (ln)” value (30 °C) is -0.191 ± 0.13 and the “self-splicing fitness (ln)” value (37 °C) was 0.177 ± 0.16.
For UGUCAGCAAUAUUACGGGUG, the “self-splicing fitness (ln)” value is -0.605 ± 0.042 (30 °C) and -0.00626 ± 0.067 (37 °C).
The corresponding values for AGCGAGCAAUAUUACGUGGC are -4.97 ± 0.31 and -2.46 ± 0.2.
On to AUCGAGCAAUAUUACGGGCC, for which the “self-splicing fitness (ln)” value runs as follows: (30 °C) -1.92 ± 0.27; (37 °C) -2.19 ± 0.37.
The corresponding values for UAAUAGCAAUAUUACGCCAC are -1.32 ± 0.19 and -1.89 ± 0.44.
On to AAAAAGCAAUAUUACGCAUC, for which the “self-splicing fitness (ln)” value by setting is: (30 °C) -2.24 ± 0.13; (37 °C) -1.34 ± 0.15.
